The target in the assay is TPP-2305 (hTNFRSF12Aaa28-80) (Human) (UniProt Q9NP84). As to the kind of experiment: SPR (Biacore T100), IgG captured, TPP-2305 injected, 1:1 model.

B1: ITEM-1 (antibody, from another filing, mouse IgG1, V domains shown)
VH: EVKLEESGGGLVQPGGSMKLSCVASGFSFSNYWMNWVRQSPEKGLEWVAEIRLKSNNYATHYAESVKGRFTISRHDSKSSVYLQMNNLRAEDTGIYYCTRAYADYFDYWGQGTTLTVSS
VL: DIVLTQSPASLVVSLGQRATISCRASQSVSTSTYSYMHWYQQKPGQPPKILIKYASNLESGVPARFSGSGSGTDFTLNIHPVEEEDTATYYCQHSWEIPYTFGGGTKLEIKR
Regarding B1, the Kd is 2.9 nM, the koff was determined as 0.011 s⁻¹ and the on-rate constant (kon) turned out to be 3.8e+06 M⁻¹ s⁻¹.

These data come from patent publication US20160237160A1, “ANTI-TWEAKR ANTIBODIES AND USES THEREOF” (BAYER PHARMA AKTIENGESELLSCHAFT, priority 2013, published 2016).
